Data on 3 molecules can be found in PMC9499535, “Distinct architectural requirements for the parS centromeric sequence of the pSM19035 plasmid partition machinery”.

For data set [1], the target named is T1, ParB_pSM19035 (ParBpSM, Omega) (plasmid pSM19035, UniProt Q57468 1-71).
T1 sequence: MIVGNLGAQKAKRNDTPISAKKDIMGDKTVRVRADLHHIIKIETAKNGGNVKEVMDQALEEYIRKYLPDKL
The data set is described as follows: EMSA; 2 mM Mg2+; EMSA: 50 mM Tris-HCl pH 7.4, 100 mM KCl, 2 mM MgCl2, 1 mM DTT, room temperature 15 min, 0.05 nM 32P-DNA, 4-12% PAGE. TIRF binding to the salmon sperm DNA carpet (undefined sequence pool) and ATPase assays not listed. To be noted: protein: recombinant; tags: none stated; chain copies: 2; label: 32P; blunt.

Data set [2] deals with ParApSM-His6 (non-fluorescent, wild-type) (Streptococcus pyogenes (plasmid pSM19035)) (UniProt Q57280).
Data set [3] shares this target. The source holds these as a separate data set.
For data set [4] the target is unchanged. This is another data set of the same source.
The target is the same in data set [5]. The source holds these as a separate data set.
The target in data set [6] is ParApSM^D60E-GFP-His6 (Streptococcus pyogenes (plasmid pSM19035)) (UniProt Q57280). The experiment in a line: TIRF microscopy on an nsDNA-carpeted flow cell; ParApSM^D60E-GFP (1 μM) bound first to the nsDNA-carpet, then washed with 250 nM ParBpSM-Alexa647 plus 3R-parSpSM duplex (125 nM heptad); room temperature; 1 mM ATP.
Data set [7] has the same target. The data set is described as follows: TIRF microscopy on an nsDNA-carpeted flow cell; ParApSM^D60E-GFP (1 μM) bound first to the nsDNA-carpet, then washed with 250 nM ParBpSM-Alexa647 plus 4R-parSpSM duplex (125 nM heptad); room temperature; 1 mM ATP.
The target is the same in data set [8]. The data set is described as follows: TIRF microscopy on an nsDNA-carpeted flow cell; ParApSM^D60E-GFP (1 μM) bound first to the nsDNA-carpet, then washed with 250 nM ParBpSM-Alexa647 plus 36 nM 7R-parSpSM duplex; room temperature; 1 mM ATP; apparent constants.
In data set [9] the target is ParApSM-GFP-His6 (Streptococcus pyogenes (plasmid pSM19035)) (UniProt Q57280). The experiment in a line: TIRF microscopy on an nsDNA-carpeted flow cell; ParApSM-GFP bound first to the nsDNA-carpet to ~10% of saturation, then washed with 1 μM ParBpSM-Alexa647 plus 7R-parSpSM duplex; room temperature; 1 mM ATP; apparent constants.
Data set [10] has the same target. The data set is described as follows: TIRF microscopy on an nsDNA-carpeted flow cell; ParApSM-GFP bound first to the nsDNA-carpet to ~10% of saturation, then washed with 1 μM ParBpSM-Alexa647 plus 125 nM 4R-parSpSM duplex; room temperature; 1 mM ATP; apparent constants.
For data set [11] the target is unchanged. The data set is described as follows: TIRF microscopy on an nsDNA-carpeted flow cell; ParApSM-GFP bound first to the nsDNA-carpet to ~10% of saturation, then washed with 1 μM ParBpSM-Alexa647 plus 166 nM 3R-parSpSM duplex; room temperature; 1 mM ATP; apparent constants.
Data set [12] has the same target. The experiment in a line: TIRF microscopy on an nsDNA-carpeted flow cell; ParApSM-GFP (1 μM) and ParBpSM-Alexa647 (1 μM) preincubated with 1 mM ATP without parSpSM, infused over the nsDNA-carpet for 15 min, then washed with ATP buffer without proteins; room temperature; apparent constants.
For data set [13] the target is unchanged. The experiment in a line: TIRF microscopy on an nsDNA-carpeted flow cell; ParApSM-GFP (1 μM) and ParBpSM-Alexa647 (1 μM) preincubated with 1 mM ATP and 3R-parSpSM (0.5 μM consensus repeats), infused over the nsDNA-carpet for 15 min, then washed with ATP buffer without proteins; room temperature; apparent constants.
The target is the same in data set [14]. The experiment in a line: TIRF microscopy on an nsDNA-carpeted flow cell; ParApSM-GFP (1 μM) and ParBpSM-Alexa647 (1 μM) preincubated with 1 mM ATP and 7R-parSpSM (0.5 μM consensus repeats), infused over the nsDNA-carpet for 15 min, then washed with ATP buffer without proteins; room temperature; apparent constants.
Data set [15] has the same target. The data set is described as follows: TIRF microscopy on an nsDNA-carpeted flow cell; ParApSM-GFP (1 μM) and ParBpSM-Alexa647 (1 μM) preincubated with 1 mM ATP and 4R-parSpSM (0.5 μM consensus repeats), infused over the nsDNA-carpet for 15 min, then washed with ATP buffer without proteins; room temperature; apparent constants.
Data set [16] shares this target. The data set is described as follows: TIRF microscopy on an nsDNA-carpeted flow cell; ParApSM-GFP (1 μM, 1 mM ATP) bound first to the nsDNA-carpet to ~10% of saturation, then washed with 1 μM ParBpSM-Alexa647 without parSpSM; room temperature; 50 mM Tris-HCl pH 7.4, 100 mM KCl, 2 mM MgCl2, 10% glycerol, 1 mM ATP; apparent constants.

As usually defined, the Kd is the constant that tells how readily two partners part at equilibrium.

B1: scrambled 55 bp (nsDNA) (dsDNA)
DNA 1: GGGATCAAACACTTGATAGACAAGTCTTTGACCTAATTGTGAAAATTATGAAGGG
DNA 2: CCCTTCATAATTTTCACAATTAGGTCAAAGACTTGTCTATCAAGTGTTTGATCCC
For the molecule B1, in data set [1], the equilibrium dissociation constant (Kd) is roughly 1000 nM.

B2: ParBpSM wild-type (natural protein)
chain: T1 sequence
In [2], B2 yielded a steady-state ParApSM ATPase turnover with 8 μM ParBpSM, scrambled-sequence duplex and nsDNA (pBR322), 37°C of 2.4 h^–1; a steady-state ParApSM ATPase turnover with ParBpSM, 7R-parSpSM duplex and nsDNA (pBR322), 37°C of 20.5 h^–1. The molecule further yielded a ParBpSM concentration at which the ParApSM ATPase stimulation saturates, with parSpSM DNA of 1-3 repeats and nsDNA in data set [3] of 2 µM. Also, the steady-state ParApSM ATPase turnover with ParBpSM, 3R-1nc-3R-parSpSM duplex and nsDNA, 37°C in data set [4] was found to be 8.3 h^–1. In addition, the ParBpSM concentration for half-activation of the ParApSM ATPase at high 7R-parSpSM concentration, with nsDNA in [5] is 650 nM.

B3: ParBpSM-Alexa647 (ParBpSM-GCE, 1% labeled) (natural protein)
chain: T1 sequence
modifications: Alexa647 maleimide on the added cysteine (73C); 1% of the protein labelled
B3: the ParBpSM/ParApSM ratio on the nsDNA-carpet at the initial ParBpSM overshoot peak (ParBpSM/ParApSM) in data set [6] amounted to 0.6. Besides, the ParBpSM/ParApSM ratio on the nsDNA-carpet at the initial ParBpSM overshoot peak (ParBpSM/ParApSM) in data set [7] was found to be 1.3. Also, in [8], the ParBpSM/ParApSM ratio on the nsDNA-carpet at the initial ParBpSM overshoot peak (ParBpSM/ParApSM) amounted to 1.75; the apparent koff of ParBpSM from the ParApSM^D60E-bound nsDNA-carpet after its peak (ParBpSM and 7R-parSpSM in the wash) was 0.036 min^–1. Besides, in data set [9], the ParBpSM density on the nsDNA-carpet relative to carpet-bound ParApSM came to 2 fold; the ParBpSM/ParApSM molar ratio on the nsDNA-carpet at the start of the dissociation burst (ParBpSM/ParApSM) is 2.8; the apparent koff of ParBpSM from the ParApSM-bound nsDNA-carpet after its peak (ParBpSM and 7R-parSpSM in the wash) stood at 2.4 min^–1. Further, in data set [10], the ParBpSM/ParApSM molar ratio on the nsDNA-carpet at the start of the dissociation burst (ParBpSM/ParApSM) came to 1.7; the apparent koff of ParBpSM from the ParApSM-bound nsDNA-carpet after its peak (ParBpSM and 4R-parSpSM in the wash) stood at 3.9 min^–1. Also, in data set [11], the ParBpSM/ParApSM ratio on the nsDNA-carpet (ParBpSM/ParApSM) came to 1.3; the apparent koff-fast (~24%) of ParBpSM from the ParApSM-bound nsDNA-carpet (ParBpSM and 3R-parSpSM in the wash) is 1.4 min^–1; the apparent koff-slow of ParBpSM from the ParApSM-bound nsDNA-carpet (ParBpSM and 3R-parSpSM in the wash) was found to be 0.05 min^–1. Also, in [12], the ParBpSM density on the nsDNA-carpet relative to ParApSM after 15 min of infusion (ParBpSM/ParApSM) was determined as 0.67 and the koff of the fast-dissociating majority (~75%) of ParBpSM turned out to be 7 min^–1. Further, in [13], the ParBpSM density on the nsDNA-carpet relative to ParApSM after 15 min of infusion (ParBpSM/ParApSM) was 0.67 and the koff of the fast-dissociating majority (~75%) of ParBpSM was determined as 4 min^–1. For the same molecule, in data set [14], the ParBpSM/ParApSM ratio accumulated on the nsDNA-carpet (ParBpSM/ParApSM) was 1.2, the koff-fast-B (~70%) worked out at 1.1 min^–1 and the koff-slow-B amounted to 0.13 min^–1. Further, in data set [15], the ParBpSM/ParApSM ratio on the nsDNA-carpet at the end of 15 min of infusion (ParBpSM/ParApSM) was 0.75, the ParBpSM/ParApSM ratio on the nsDNA-carpet within 1 min of washing (ParBpSM/ParApSM) is 0.5, the koff-fast-B (66%) amounted to 1.9 min^–1 and the koff-slow-B is 0.23 min^–1. Moreover, in [16], the ParBpSM/ParApSM ratio on the nsDNA-carpet after several min of washing (ParBpSM/ParApSM) is 1, the peak density on the ParApSM-bound nsDNA-carpet turned out to be 3000 dimers/μm^2 and the plateau density on the ParApSM-bound nsDNA-carpet was determined as 2000 dimers/μm^2.
